Measurements: patent publication US8809010B2, “Method for prophylactic treatment of alzheimer's disease using inhibitors of glutaminyl cyclase and glutamate cyclases” (Probiodrug AG, priority 2003, dated 2014)

Substrate: NC(=O)CCC(N)C(=O)Nc1ccc2ccccc2c1
Assay: Continuous spectrophotometric QC assay (glutamate dehydrogenase coupled), substrate kinetics;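 note: initial rates read on a microplate reader at 30 °C, with enzyme activity quantified against an ammonia calibration curve under the same assay conditions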
Format: biochemical
Conditions: other: Human QC
[1] = 0.05M Tris-HCl, pH 8.0, 0.5 M KCl, pH 8.0

Method: The initial velocities were evaluated and the enzymatic activity was determined from a standard curve of ammonia under assay conditions. All samples were measured at 30° C., using either the [sequence]luor Plus or the Sunrise (both from TECAN) reader for microplates. Kinetic data was evaluated using GraFit software.

B1: human QC (Homo sapiens) (protein)
chain: VSPSASAWPEEKNYHQPAILNSSALRQIAEGTSISEMWQNDLQPLLIERYPGSPGSYAARQHIMQRIQRLQADWVLEIDTFLSQTPYGYRSFSNIISTLNPTAKRHLVLACHYDSKYFSHWNNRVFVGATDSAVPCAMMLELARALDKKLLSLKTVSDSKPDLSLQLIFFDGEEAFLHWSPQDSLYGSRHLAAKMASTPHPPGARGTSQLHGMDLLVLLDLIGAPNPTFPNFFPNSARWFERLQAIEHELHELGLLKDHSLEGRYFQNYSYGGVIQDDHIPFLRRGVPVLHLIPSPFPEVWHTMDDNEENLDESTIDNLNKILQVFVLEYLHL
notes: The cDNA of the mature QC starting with codon 38 was fused in frame with the plasmid encoded 6× histidine tag; 6xHis; made in house; host or cells: Pichia pastoris X33 (pPICZαB, secreted); also E. coli M15 (pQE-31)
- Km (0.05M Tris-HCl, pH 8.0): 76 ± 4 µM
- kcat (0.05M Tris-HCl, pH 8.0): 21.7 ± 0.5 s⁻¹
- kcat/Km (0.05M Tris-HCl, pH 8.0): 285000 ± 8000 M⁻¹ s⁻¹
- Km [1]: 63 ± 3 µM
- kcat [1]: 20.0 ± 0.4 s⁻¹
- kcat/Km [1]: 318000 ± 9000 M⁻¹ s⁻¹
- Km (pH 8.8): 70 ± 3 µM
- kcat (pH 8.8): 20.6 ± 0.5 s⁻¹
